Assay results published in patent US20250171562A1 (ALK ABELL, published 2025).
Each block holds one binder with its values, some of them ahead of it.

Biological target: T1, recombinant human IgE (human, UniProt P01854-1 1-428)
T1 construct: made in-house (ALK); preloaded on immobilised FcεRIα in the displacement ELISA
Experiment: IgE-FcεRIα displacement ELISA
In short: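 sdAbs at pM–μM were incubated 1 h on preformed complexes of 13 ng/ml recombinant human IgE with avi-tag-biotinylated human FcεRIα captured on streptavidin.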

T1 sequence (P01854 other isoform, or with tags, fused parts or gaps): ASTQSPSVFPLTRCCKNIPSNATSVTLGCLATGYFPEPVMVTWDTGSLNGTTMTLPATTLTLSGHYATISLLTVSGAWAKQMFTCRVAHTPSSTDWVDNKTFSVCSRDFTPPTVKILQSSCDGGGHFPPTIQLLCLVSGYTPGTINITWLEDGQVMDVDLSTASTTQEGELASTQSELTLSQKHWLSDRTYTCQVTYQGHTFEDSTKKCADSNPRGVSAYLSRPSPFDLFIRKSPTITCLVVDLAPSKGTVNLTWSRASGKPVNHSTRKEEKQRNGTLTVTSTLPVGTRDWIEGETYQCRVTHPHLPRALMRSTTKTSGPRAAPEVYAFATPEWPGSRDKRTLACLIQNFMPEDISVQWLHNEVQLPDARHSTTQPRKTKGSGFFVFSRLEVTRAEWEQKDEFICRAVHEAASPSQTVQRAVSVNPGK

B1: CIgG4B1A2(RS) (Fc fusion)
chain 1: GPPCPPCPAPEFLGGPSVFLFPPKPKDTLMISRTPEVTCVVVDVSQEDPEVQFNWYVDGVEVHNAKTKPREEQFNSTYRVVSVLTVLHQDWLNGKEYKCKVSNKGLPSSIEKTISKAKGQPREPQVYTLPPCQEEMTKNQVSLWCLVKGFYPSDIAVEWESNGQPENNYKTTPPVLDSDGSFFLYSRLTVDKSRWQEGNVFSCSVMHEALHNHYTQKSLSLSLGKRSQVQLQESGGGLVQTGGSLRLSCAVHGRTFSNTGMGWFRQAPGNERQFVAIISPSGTSTYYADSVKGRFTISRDPAKNTVYLQMNSLKMDDTAVYYCAASYGSNWSTLRHQRRNEYDAWGQGTQVAVS
chain 2: GPPCPPCPAPEFLGGPSVFLFPPKPKDTLMISRTPEVTCVVVDVSQEDPEVQFNWYVDGVEVHNAKTKPREEQFNSTYRVVSVLTVLHQDWLNGKEYKCKVSNKGLPSSIEKTISKAKGQPREPQVCTLPPSQEEMTKNQVSLSCAVKGFYPSDIAVEWESNGQPENNYKTTPPVLDSDGSFFLVSRLTVDKSRWQEGNVFSCSVMHEALHNHYTQKSLSLSLGKRSEVQLLESGGGLVQPGGSLRLSCAASGFRFGNYDMAWVRQAPGKRYEWVSSIDTGGDITHYADSVKGRFTISRDNAKNTLYLQMNSLRPEDTAEYWCATDEEYALGPNEFDYYGQGTLVTVS
- EC50: 5 nM
- Max effect: > 95%

B4: CIgG4B1A2(G4S)3 (Fc fusion)
chain 1: GPPCPPCPAPEFLGGPSVFLFPPKPKDTLMISRTPEVTCVVVDVSQEDPEVQFNWYVDGVEVHNAKTKPREEQFNSTYRVVSVLTVLHQDWLNGKEYKCKVSNKGLPSSIEKTISKAKGQPREPQVYTLPPCQEEMTKNQVSLWCLVKGFYPSDIAVEWESNGQPENNYKTTPPVLDSDGSFFLYSRLTVDKSRWQEGNVFSCSVMHEALHNHYTQKSLSLSLGKGGGGSGGGGSGGGGSQVQLQESGGGLVQTGGSLRLSCAVHGRTFSNTGMGWFRQAPGNERQFVAIISPSGTSTYYADSVKGRFTISRDPAKNTVYLQMNSLKMDDTAVYYCAASYGSNWSTLRHQRRNEYDAWGQGTQVAVS
chain 2: GPPCPPCPAPEFLGGPSVFLFPPKPKDTLMISRTPEVTCVVVDVSQEDPEVQFNWYVDGVEVHNAKTKPREEQFNSTYRVVSVLTVLHQDWLNGKEYKCKVSNKGLPSSIEKTISKAKGQPREPQVCTLPPSQEEMTKNQVSLSCAVKGFYPSDIAVEWESNGQPENNYKTTPPVLDSDGSFFLVSRLTVDKSRWQEGNVFSCSVMHEALHNHYTQKSLSLSLGKGGGGSGGGGSGGGGSEVQLLESGGGLVQPGGSLRLSCAASGFRFGNYDMAWVRQAPGKRYEWVSSIDTGGDITHYADSVKGRFTISRDNAKNTLYLQMNSLRPEDTAEYWCATDEEYALGPNEFDYYGQGTLVTVS
- EC50: 2.5 nM
- Max effect: > 95%

B6: CIgG4B1A2(G4S)2 (Fc fusion)
chain 1: GPPCPPCPAPEFLGGPSVFLFPPKPKDTLMISRTPEVTCVVVDVSQEDPEVQFNWYVDGVEVHNAKTKPREEQFNSTYRVVSVLTVLHQDWLNGKEYKCKVSNKGLPSSIEKTISKAKGQPREPQVYTLPPCQEEMTKNQVSLWCLVKGFYPSDIAVEWESNGQPENNYKTTPPVLDSDGSFFLYSRLTVDKSRWQEGNVFSCSVMHEALHNHYTQKSLSLSLGKGGGGSGGGGSQVQLQESGGGLVQTGGSLRLSCAVHGRTFSNTGMGWFRQAPGNERQFVAIISPSGTSTYYADSVKGRFTISRDPAKNTVYLQMNSLKMDDTAVYYCAASYGSNWSTLRHQRRNEYDAWGQGTQVAVS
chain 2: GPPCPPCPAPEFLGGPSVFLFPPKPKDTLMISRTPEVTCVVVDVSQEDPEVQFNWYVDGVEVHNAKTKPREEQFNSTYRVVSVLTVLHQDWLNGKEYKCKVSNKGLPSSIEKTISKAKGQPREPQVCTLPPSQEEMTKNQVSLSCAVKGFYPSDIAVEWESNGQPENNYKTTPPVLDSDGSFFLVSRLTVDKSRWQEGNVFSCSVMHEALHNHYTQKSLSLSLGKGGGGSGGGGSEVQLLESGGGLVQPGGSLRLSCAASGFRFGNYDMAWVRQAPGKRYEWVSSIDTGGDITHYADSVKGRFTISRDNAKNTLYLQMNSLRPEDTAEYWCATDEEYALGPNEFDYYGQGTLVTVS
- EC50: 2.7 nM
- Max effect: > 95%

B7: CIgG4B1A2(G4S)1 (Fc fusion)
chain 1: GPPCPPCPAPEFLGGPSVFLFPPKPKDTLMISRTPEVTCVVVDVSQEDPEVQFNWYVDGVEVHNAKTKPREEQFNSTYRVVSVLTVLHQDWLNGKEYKCKVSNKGLPSSIEKTISKAKGQPREPQVYTLPPCQEEMTKNQVSLWCLVKGFYPSDIAVEWESNGQPENNYKTTPPVLDSDGSFFLYSRLTVDKSRWQEGNVFSCSVMHEALHNHYTQKSLSLSLGKGGGGSQVQLQESGGGLVQTGGSLRLSCAVHGRTFSNTGMGWFRQAPGNERQFVAIISPSGTSTYYADSVKGRFTISRDPAKNTVYLQMNSLKMDDTAVYYCAASYGSNWSTLRHQRRNEYDAWGQGTQVAVS
chain 2: GPPCPPCPAPEFLGGPSVFLFPPKPKDTLMISRTPEVTCVVVDVSQEDPEVQFNWYVDGVEVHNAKTKPREEQFNSTYRVVSVLTVLHQDWLNGKEYKCKVSNKGLPSSIEKTISKAKGQPREPQVCTLPPSQEEMTKNQVSLSCAVKGFYPSDIAVEWESNGQPENNYKTTPPVLDSDGSFFLVSRLTVDKSRWQEGNVFSCSVMHEALHNHYTQKSLSLSLGKGGGGSEVQLLESGGGLVQPGGSLRLSCAASGFRFGNYDMAWVRQAPGKRYEWVSSIDTGGDITHYADSVKGRFTISRDNAKNTLYLQMNSLRPEDTAEYWCATDEEYALGPNEFDYYGQGTLVTVS
- EC50: 3 nM
- Max effect: > 95%

Second part, the binder after the results:

- Max effect: > 95%
B2: NIgG4B1A2(G4S)2 (Fc fusion)
chain 1: QVQLQESGGGLVQTGGSLRLSCAVHGRTFSNTGMGWFRQAPGNERQFVAIISPSGTSTYYADSVKGRFTISRDPAKNTVYLQMNSLKMDDTAVYYCAASYGSNWSTLRHQRRNEYDAWGQGTQVAVSGGGGSGGGGSGPPCPPCPAPEFLGGPSVFLFPPKPKDTLMISRTPEVTCVVVDVSQEDPEVQFNWYVDGVEVHNAKTKPREEQFNSTYRVVSVLTVLHQDWLNGKEYKCKVSNKGLPSSIEKTISKAKGQPREPQVYTLPPCQEEMTKNQVSLWCLVKGFYPSDIAVEWESNGQPENNYKTTPPVLDSDGSFFLYSRLTVDKSRWQEGNVFSCSVMHEALHNHYTQKSLSLSLGK
chain 2: EVQLLESGGGLVQPGGSLRLSCAASGFRFGNYDMAWVRQAPGKRYEWVSSIDTGGDITHYADSVKGRFTISRDNAKNTLYLQMNSLRPEDTAEYWCATDEEYALGPNEFDYYGQGTLVTVSGGGGSGGGGSGPPCPPCPAPEFLGGPSVFLFPPKPKDTLMISRTPEVTCVVVDVSQEDPEVQFNWYVDGVEVHNAKTKPREEQFNSTYRVVSVLTVLHQDWLNGKEYKCKVSNKGLPSSIEKTISKAKGQPREPQVCTLPPSQEEMTKNQVSLSCAVKGFYPSDIAVEWESNGQPENNYKTTPPVLDSDGSFFLVSRLTVDKSRWQEGNVFSCSVMHEALHNHYTQKSLSLSLGK

- Max effect: > 95%
B3: NIgG4B2A1(G4S)1 (Fc fusion)
chain 1: QVQLVESGGGLVQAGGSLRLSCAVFGSTFSNNVADWYRQAPGKQRELVARISASGATREYGDSVKGRFTISRDDAKNTMYLQMNNLKPEDTAVYRCHKIEWEDLSRKDYWGQGTQVTVSGGGGSGPPCPPCPAPEFLGGPSVFLFPPKPKDTLMISRTPEVTCVVVDVSQEDPEVQFNWYVDGVEVHNAKTKPREEQFNSTYRVVSVLTVLHQDWLNGKEYKCKVSNKGLPSSIEKTISKAKGQPREPQVYTLPPCQEEMTKNQVSLWCLVKGFYPSDIAVEWESNGQPENNYKTTPPVLDSDGSFFLYSRLTVDKSRWQEGNVFSCSVMHEALHNHYTQKSLSLSLGK
chain 2: EVQLLESGGGLVQPGGSLRLSCAASGFTFGNYDMAWVRQAPGKRPEWVSSIDTGGDITHYADSVKGRFTISRDNAKNTLYLQMNSLRPEDTAVYWCATDEEYALGPNEFDYYGQGTLVTVSSGGGGSGPPCPPCPAPEFLGGPSVFLFPPKPKDTLMISRTPEVTCVVVDVSQEDPEVQFNWYVDGVEVHNAKTKPREEQFNSTYRVVSVLTVLHQDWLNGKEYKCKVSNKGLPSSIEKTISKAKGQPREPQVCTLPPSQEEMTKNQVSLSCAVKGFYPSDIAVEWESNGQPENNYKTTPPVLDSDGSFFLVSRLTVDKSRWQEGNVFSCSVMHEALHNHYTQKSLSLSLGK

- Max effect: > 95%
B5: NIgG4B1A2(G4S)3 (Fc fusion)
chain 1: QVQLQESGGGLVQTGGSLRLSCAVHGRTFSNTGMGWFRQAPGNERQFVAIISPSGTSTYYADSVKGRFTISRDPAKNTVYLQMNSLKMDDTAVYYCAASYGSNWSTLRHQRRNEYDAWGQGTQVAVSGGGGSGGGGSGGGGSGPPCPPCPAPEFLGGPSVFLFPPKPKDTLMISRTPEVTCVVVDVSQEDPEVQFNWYVDGVEVHNAKTKPREEQFNSTYRVVSVLTVLHQDWLNGKEYKCKVSNKGLPSSIEKTISKAKGQPREPQVYTLPPCQEEMTKNQVSLWCLVKGFYPSDIAVEWESNGQPENNYKTTPPVLDSDGSFFLYSRLTVDKSRWQEGNVFSCSVMHEALHNHYTQKSLSLSLGK
chain 2: EVQLLESGGGLVQPGGSLRLSCAASGFRFGNYDMAWVRQAPGKRYEWVSSIDTGGDITHYADSVKGRFTISRDNAKNTLYLQMNSLRPEDTAEYWCATDEEYALGPNEFDYYGQGTLVTVSGGGGSGGGGSGGGGSGPPCPPCPAPEFLGGPSVFLFPPKPKDTLMISRTPEVTCVVVDVSQEDPEVQFNWYVDGVEVHNAKTKPREEQFNSTYRVVSVLTVLHQDWLNGKEYKCKVSNKGLPSSIEKTISKAKGQPREPQVCTLPPSQEEMTKNQVSLSCAVKGFYPSDIAVEWESNGQPENNYKTTPPVLDSDGSFFLVSRLTVDKSRWQEGNVFSCSVMHEALHNHYTQKSLSLSLGK

- Max effect: > 95%
B8: NIgG4B2A1(RS) (Fc fusion)
chain 1: QVQLVESGGGLVQAGGSLRLSCAVFGSTFSNNVADWYRQAPGKQRELVARISASGATREYGDSVKGRFTISRDDAKNTMYLQMNNLKPEDTAVYRCHKIEWEDLSRKDYWGQGTQVTVSRSGPPCPPCPAPEFLGGPSVFLFPPKPKDTLMISRTPEVTCVVVDVSQEDPEVQFNWYVDGVEVHNAKTKPREEQFNSTYRVVSVLTVLHQDWLNGKEYKCKVSNKGLPSSIEKTISKAKGQPREPQVYTLPPCQEEMTKNQVSLWCLVKGFYPSDIAVEWESNGQPENNYKTTPPVLDSDGSFFLYSRLTVDKSRWQEGNVFSCSVMHEALHNHYTQKSLSLSLGK
chain 2: EVQLLESGGGLVQPGGSLRLSCAASGFTFGNYDMAWVRQAPGKRPEWVSSIDTGGDITHYADSVKGRFTISRDNAKNTLYLQMNSLRPEDTAVYWCATDEEYALGPNEFDYYGQGTLVTVSSRSGPPCPPCPAPEFLGGPSVFLFPPKPKDTLMISRTPEVTCVVVDVSQEDPEVQFNWYVDGVEVHNAKTKPREEQFNSTYRVVSVLTVLHQDWLNGKEYKCKVSNKGLPSSIEKTISKAKGQPREPQVCTLPPSQEEMTKNQVSLSCAVKGFYPSDIAVEWESNGQPENNYKTTPPVLDSDGSFFLVSRLTVDKSRWQEGNVFSCSVMHEALHNHYTQKSLSLSLGK
